First the molecules themselves.
B1: 3xFlag-EGFP-ALFY [human] / GST-CTLA4 (201–215) [human] (parent complex)
chain 1: MNMVKRIMGRPRQEECSPQDNALGLMHLRRLFTELCHPPRHMTQKEQEEKLYMMLPVFNRVFGNAPPNTMTEKFSDLLQFTTQVSRLMVTEIRRRASNKSTEAASRAIVQFLEINQSEEASRGWMLLTTINLLASSGQKTVDCMTTMSVPSTLVKCLYLFFDLPHVPEAVGGAQNELPLAERRGLLQKVFVQILVKLCSFVSPAEELAQKDDLQLLFSAITSWCPPYNLPWRKSAGEVLMTISRHGLSVNVVKYIHEKECLSTCVQNMQQSDDLSPLEIVEMFAGLSCFLKDSSDVSQTLLDDFRIWQGYNFLCDLLLRLEQAKEAESKDALKDLVNLITSLTTYGVSELKPAGITTGAPFLLPGFAVPQPAGKGHSVRNVQAFAVLQNAFLKAKTSFLAQIILDAITNIYMADNANYFILESQHTLSQFAEKISKLPEVQNKYFEMLEFVVFSLNYIPCKELISVSILLKSSSSYHCSIIAMKTLLKFTRHDYIFKDVFREVGLLEVMVNLLHKYAALLKDPTQALNEQGDSRNNSSVEDQKHLALLVMETLTVLLQGSNTNAGIFREFGGARCAHNIVKYPQCRQHALMTIQQLVLSPNGDDDMGTLLGLMHSAPPTELQLKTDILRALLSVLRESHRSRTVFRKVGGFVYITSLLVAMERSLSCPPKNGWEKVNQNQVFELLHTVFCTLTAAMRYEPANSHFFKTEIQYEKLADAVRFLGCFSDLRKISAMNVFPSNTQPFQRLLEEDVISIESVSPTLRHCSKLFIYLYKVATDSFDSRAEQIPPCLTSESSLPSPWGTPALSRKRHAYHSVSTPPVYPPKNVADLKLHVTTSSLQSSDAVIIHPGAMLAMLDLLASVGSVTQPEHALDLQLAVANILQSLVHTERNQQVMCEAGLHARLLQRCSAALADEDHSLHPPLQRMFERLASQALEPMVLREFLRLASPLNCGAWDKKLLKQYRVHKPSSLSYEPEMRSSMITSLEGLGTDNVFSLHEDNHYRISKSLVKSAEGSTVPLTRVKCLVSMTTPHDIRLHGSSVTPAFVEFDTSLEGFGCLFLPSLAPHNAPTNNTVTTGLIDGAVVSGIGSGERFFPPPSGLSYSSWFCIEHFSSPPNNHPVRLLTVVRRANSSEQHYVCLAIVLSAKDRSLIVSTKEELLQNYVDDFSEESSFYEILPCCARFRCGELIIEGQWHHLVLVMSKGMLKNSTAALYIDGQLVNTVKLHYVHSTPGGSGSANPPVVSTVYAYIGTPPAQRQIASLVWRLGPTHFLEEVLPSSNVTTIYELGPNYVGSFQAVCMPCKDAKSEGVVPSPVSLVPEEKVSFGLYALSVSSLTVARIRKVYNKLDSKAIAKQLGISSHENATPVKLIHNSAGHLNGSARTIGAALIGYLGVRTFVPKPVATTLQYVGGAAAILGLVAMASDVEGLYAAVKALVCVVKSNPLASKEMERIKGYQLLAMLLKKKRSLLNSHILHLTFSLVGTVDSGHETSIIPNSTAFQDLLCDFEVWLHAPYELHLSLFEHFIELLTESSEASKNAKLMREFQLIPKLLLTLRDMSLSQPTIAAISNVLSFLLQGFPSSNDLLRFGQFISSTLPTFAVCEKFVVMEINNEEKLDTGTEEEFGGLVSANLILLRNRLLDILLKLIYTSKEKTSINLQACEELVKTLGFDWIMMFMEEHLHSTTVTAAMRILVVLLSNQSILIKFKEGLSGGGWLEQTDSVLTNKIGTVLGFNVGRSAGGRSTVREINRDACHFPGFPVLQSFLPKHTNVPALYFLLMALFLQQPVSELPENLQVSVPVISCRSKQGCQFDLDSIWTFIFGVPASSGTVVSSIHNVCTEAVFLLLGMLRSMLTSPWQSEEEGSWLREYPVTLMQFFRYLYHNVPDLASMWMSPDFLCALAATVFPFNIRPYSEMVTDLDDEVGSPAEEFKAFAADTGMNRSQSEYCNVGTKTYLTNHPAKKFVFDFMRVLIIDNLCLTPASKQTPLIDLLLEASPERSTRTQQKEFQTYILDSVMDHLLAADVLLGEDASLPITSGGSYQVLVNNVFYFTQRVVDKLWQGMFNKESKLLIDFIIQLIAQSKRRSQGLSLDAVYHCLNRTILYQFSRAHKTVPQQVALLDSLRVLTVNRNLILGPGNHDQEFISCLAHCLINLHVGSNVDGFGLEAEARMTTWHIMIPSDIEPDGSYSQDISEGRQLLIKAVNRVWTELIHSKKQVLEELFKVTLPVNERGHVDIATARPLIEEAALKCWQNHLAHEKKCISRGEALAPTTQSKLSRVSSGFGLSKLTGSRRNRKESGLNKHSLSTQEISQWMFTHIAVVRDLVDTQYKEYQERQQNALKYVTEEWCQIECELLRERGLWGPPIGSHLDKWMLEMTEGPCRMRKKMVRNDMFYNHYPYVPETEQETNVASEIPSKQPETPDDIPQKKPARYRRAVSYDSKEYYMRLASGNPAIVQDAIVESSEGEAAQQEPEHGEDTIAKVKGLVKPPLKRSRSAPDGGDEENQEQLQDQIAEGSSIEEEEKTDNATLLRLLEEGEKIQHMYRCARVQGLDTSEGLLLFGKEHFYVIDGFTMTATREIRDIETLPPNMHEPIIPRGARQGPSQLKRTCSIFAYEDIKEVHKRRYLLQPIAVEVFSGDGRNYLLAFQKGIRNKVYQRFLAVVPSLTDSSESVSGQRPNTSVEQGSGLLSTLVGEKSVTQRWERGEISNFQYLMHLNTLAGRSYNDLMQYPVFPWILADYDSEEVDLTNPKTFRNLAKPMGAQTDERLAQYKKRYKDWEDPNGETPAYHYGTHYSSAMIVASYLVRMEPFTQIFLRLQGGHFDLADRMFHSVREAWYSASKHNMADVKELIPEFFYLPEFLFNSNNFDLGCKQNGTKLGDVILPPWAKGDPREFIRVHREALECDYVSAHLHEWIDLIFGYKQQGPAAVEAVNVFHHLFYEGQVDIYNINDPLKETATIGFINNFGQIPKQLFKKPHPPKRVRSRLNGDNAGISVLPGSTSDKIFFHHLDNLRPSLTPVKELKEPVGQIVCTDKGILAVEQNKVLIPPTWNKTFAWGYADLSCRLGTYESDKAMTVYECLSEWGQILCAICPNPKLVITGGTSTVVCVWEMGTSKEKAKTVTLKQALLGHTDTVTCATASLAYHIIVSGSRDRTCIIWDLNKLSFLTQLRGHRAPVSALCINELTGDIVSCAGTYIHVWSINGNPIVSVNTFTGRSQQIICCCMSEMNEWDTQNVIVTGHSDGVVRFWRMEFLQVPETPAPEPAEVLEMQEDCPEAQIGQEAQDEDSSDSEADEQSISQDPKDTPSQPSSTSHRPRAASCRATAAWCTDSGSDDSRRWSDQLSLDEKDGFIFVNYSEGQTRAHLQGPLSHPHPNPIEVRNYSRLKPGYRWERQLVFRSKLTMHTAFDRKDNAHPAEVTALGISKDHSRILVGDSRGRVFSWSVSDQPGRSAADHWVKDEGGDSCSGCSVRFSLTERRHHCRNCGQLFCQKCSRFQSEIKRLKISSPVRVCQNCYYNLQHERGSEDGPRNC
chain 2: YVKMPPTEPECEKQF

The variants in this assay derive from B1. Description: GST pulldown, anti-flag western blot quantification; HeLa 3xFlag-EGFP-ALFY cell lysate; three independent experiments; read off a plot. (In western blotting, separated proteins are transferred to a membrane and probed.)
Consider chain 2 T7A, for which the response was about 1.5.

As to chain 2 E8A, the response is about 1.4.

Regarding chain 2 M4A, the response was about 1.6.

Consider chain 2 K3A, for which the response was about 0.55.

Consider chain 2 Y1A, for which the response is about 1.4.

For chain 2 Q14A, the response was about 0.68.

In the case of chain 2 F15A, the response was about 1.1.

Consider chain 2 K13A, for which the response is about 0.5.

chain 2 P6A: the response was about 0.67.

For chain 2 V2A, the response was about 1.7.

For the variant chain 2 C11A, the response is about 0.78.

For the variant chain 2 P5A, the response was about 0.87.

chain 2 P9A: the response was about 0.77.

Turning to chain 2 E12A, the response is about 1.2.

For the variant chain 2 E10A, the response was about 1.2.
